Experimental data reported in patent US20240076412A1 (NATIONAL INSTITUTE OF BIOLOGICAL SCIENCES BEIJING, published 2024).
One block for each binder: values may come before it.

Legend:
hGPC3-ΔHS = target: T1, hGPC3-ΔHS (human, UniProt P51654 25-559, limits assumed); experiment: SPR (Biacore T200), IgG1 captured on protein A/G CM5 chip, antigen printed as human GPC3 (hGPC3-ΔHS by paragraph 180) as analyte
T1 construct: also called hGPC3-ΔHS protein
Method: All SPR analyses were performed on a Biacore T200 instrument (Biacore, GE Healthcare). […] The association rates (Kₒₙ), dissociation rates (Koff), and affinity constants (KD) were calculated using BiacoreT200 evaluation software.

[1] = target: hCD47 protein (SPR analyte of Example 2) (human, UniProt Q08722 19-139, limits assumed); experiment: SPR, antibody captured by anti-human Fc antibodies on CM5 chip, hGPC3 injected first, then hCD47
Sequence of hCD47 protein (SPR analyte of Example 2) (Q08722 19-139 limits assumed): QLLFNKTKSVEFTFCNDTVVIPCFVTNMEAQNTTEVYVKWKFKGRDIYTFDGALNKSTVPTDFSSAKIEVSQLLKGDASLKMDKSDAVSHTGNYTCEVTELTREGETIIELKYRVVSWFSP

mFcγRI = target: T2, mFcγRI; experiment: SPR (Biacore T200), antibody captured on the chip, serially diluted mFcγRI as analyte; concentrations not given
T2 construct: Named singly only on the sheet; the text speaks of mFcγRs as a group; also called mouse Fcγ receptor I; one of the mFcγRs
T2 chain: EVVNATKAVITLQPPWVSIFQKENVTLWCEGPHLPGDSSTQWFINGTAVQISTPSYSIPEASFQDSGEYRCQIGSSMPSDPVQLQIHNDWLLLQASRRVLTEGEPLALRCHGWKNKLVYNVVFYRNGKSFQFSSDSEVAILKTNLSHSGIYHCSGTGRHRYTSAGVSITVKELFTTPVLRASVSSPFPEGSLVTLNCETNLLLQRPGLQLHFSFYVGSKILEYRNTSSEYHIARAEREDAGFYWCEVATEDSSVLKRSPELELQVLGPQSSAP

Kd (hGPC3-ΔHS): 1.29 nM | koff (hGPC3-ΔHS): 0.000275 s⁻¹ | kon (hGPC3-ΔHS): 213000 M⁻¹ s⁻¹ | binding result [1]: no binding
B1: GC33 (Codrituzumab), human IgG1 (antibody, V domains shown)
VH: QVQLVQSGAEVKKPGASVKVSCKASGYTFTDYEMHWVRQAPGQGLEWMGALDPKTGDTAYSQKFKGRVTLTADESTSTAYMELSSLRSEDTAVYYCTRFYSYTYWGQGTLVTVSS
VL: DVVMTQSPLSLPVTPGEPASISCRSSQSLVHSNANTYLHWYLQKPGQSPQLLIYKVSNRFSGVPDRFSGSGSGTDFTLKISRVEAEDVGVYYCSQNTHVPPTFGQGTKLEIK
notes: also called anti-GPC3 mAb

binding result (mFcγRI): no binding
B2: GPC3/CD47-DANG (bispecific antibody)
heavy 1: QVQLVQSGAEVKKPGASVKVSCKASGYTFTDYEMHWVRQAPGQGLEWMGALDPKTGDTAYSQKFKGRVTLTADESTSTAYMELSSLRSEDTAVYYCTRFYSYTYWGQGTLVTVSSASTKGPSVFPLAPSSKSTSGGTAALGCLVKDYFPEPVTVSWNSGALTSGVHTFPAVLQSSGLYSLSSVVTVPSSSLGTQTYICNVNHKPSNTKVDKKAEPKSCDKTHTCPPCPAPELLGGPSVFLFPPKPKDTLMISRTPEVTCVVVAVSHEDPEVKFNWYVDGVEVHNAKTKPREEQYGSTYRVVSVLTVLHQDWLNGKEYKCKVSNKALPAPIEKTISKAKGQPREPQVYTLPPCRDELTKNQVSLWCLVKGFYPSDIAVEWESNGQPENNYKTTPPVLDSDGSFFLYSKLTVDKSRWQQGNVFSCSVMHEALHNHYTQKSLSLSPGK
light 1: DVVMTQSPLSLPVTPGEPASISCRSSQSLVHSNANTYLHWYLQKPGQSPQLLIYKVSNRFSGVPDRFSGSGSGTDFTLKISRVEAEDVGVYYCSQNTHVPPTFGQGTKLEIKRTVAAPSVFIFPPSDEQLKSGTASVVCLLNNFYPREAKVQWKVDNALQSGNSQESVTEQDSKDSTYSLSSTLTLSKADYEKHKVYACEVTHQGLSSPVTKSFNRGEC
heavy 2: QVQLQESGPGLVKPSETLSLTCTVSGDSINYHYWSWIRQPPGKGLEWIGYIYYSGSTTYNPSLKSRVTMSVDPSKNHFSLKLTSVTAADTALYFCARQRGAYDYWGQGTLVTVSSASVAAPSVFIFPPSDEQLKSGTASVVCLLNNFYPREAKVQWKVDNALQSGNSQESVTEQDSKDSTYSLSSTLTLSKADYEKHKVYACEVTHQGLSSPVTKSFNRGECDKTHTCPPCPAPELLGGPSVFLFPPKPKDTLMISRTPEVTCVVVAVSHEDPEVKFNWYVDGVEVHNAKTKPREEQYGSTYRVVSVLTVLHQDWLNGKEYKCKVSNKALPAPIEKTISKAKGQPREPQVCTLPPSRDELTKNQVSLSCAVKGFYPSDIAVEWESNGQPENNYKTTPPVLDSDGSFFLVSKLTVDKSRWQQGNVFSCSVMHEALHNHYTQKSLSLSPGK
light 2: DIQLTQSPSSVSASVGDRVTIACRASQDIGSRLVWYQQRPGKAPKLLIYAASSLQSGVPSRFSGSGSGTDFTLTISSLQPEDFATYYCQQSYSTPYSFGQGTKLEIKSSASTKGPSVFPLAPSSKSTSGGTAALGCLVKDYFPEPVTVSWNSGALTSGVHTFPAVLQSSGLYSLSSVVTVPSSSLGTQTYICNVNHKPSNTKVDKKAEPKSC
notes: also called GPC3/CD47 biAb Fc variant; GPC3/CD47-DANG variant
